Measured values taken from the supplement of paper PMC10724198.
± gives the standard deviation of the averaged measurements.

These sequences were tested on Saccharomyces cerevisiae (assay: protein stability index of tFT-peptide fusion (C-terminal peptide) (PSI (0-1 scale)); higher = more stable (slower turnover)). Details: genetic background: wild type; temperature: 30 C.
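Also: PSI is a weighted mean of sequencing reads over stability bins, variants kept only with over 10 reads, mCherry proximal and sfGFP distal, peptide attached via GGGS linker.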

Sequence | protein stability index
PDAGTSSLQTLT | 0.722 ± 0.036
PDCPCVAVCSDI | 0.728 ± 0.032
PDCQSIIRLTTG | 0.752 ± 0.098
PDCVRVSGLGLS | 0.665 ± 0.045
PDHPTLPRRNPL | 0.743 ± 0.039
PDPPPTRPFPAP | 0.672 ± 0.045
PDPPTQPTRRSR | 0.686 ± 0.029
PDPTLPTPSRPP | 0.642 ± 0.024
PDYPYQDQLARL | 0.784 ± 0.058
PEEPSANWTGFF | 0.598 ± 0.033
PEESSSEGSVKR | 0.67927 ± 0.00039
PEGQRNRDAQSA | 0.7125 ± 0.0026
PEIKKNRTVSIV | 0.664 ± 0.011
PEMELEKRNQHN | 0.716 ± 0.015
PENKSLITSPRV | 0.628 ± 0.098
PESPGSPEIRHR | 0.75 ± 0.053
PFALPPPPPLVP | 0.69 ± 0.0078
PFCCALPSPPSP | 0.6145 ± 0.0055
PFCGSPARTTAV | 0.642 ± 0.052
PFCKTDHMSMTV | 0.682 ± 0.039
PFFHFLGFSYFC | 0.684 ± 0.024
PFFLAFPPSPPT | 0.723 ± 0.029
PFFPSQFFLFFS | 0.6477 ± 0.0048

Sequence | protein stability index
PFFSPLPPSPPP | 0.767 ± 0.11
PFGRETCLTSVP | 0.648 ± 0.03
PFHCLPRPPCYW | 0.708 ± 0.14
PFHPSPLPAPHF | 0.638 ± 0.036
PFLAWTILPLTY | 0.701 ± 0.0074
PFLLVSHESSLE | 0.718 ± 0.0077
PFPPPSTPASLY | 0.772 ± 0.11
PFPRPAFPPYFP | 0.746 ± 0.047
PFPRPALPAYQS | 0.705 ± 0.018
PFPSLCFPPLNG | 0.727 ± 0.055
PFPSPPAPPPLP | 0.672 ± 0.048
PFRPPPPPSSPP | 0.735 ± 0.037
PFSFSSLSASVF | 0.7033 ± 0.0025
PFSRIFSPLSLL | 0.68 ± 0.045
PFSSVATFLSRL | 0.854 ± 0.17
PFVLVSDAHLIT | 0.66 ± 0.035
PFYVEAVEKPEH | 0.855 ± 0.035
PGAGGLSLVVRR | 0.654 ± 0.053
PGAVNRASDGEV | 0.6061 ± 0.005
PGCGRKSAFGLT | 0.699 ± 0.037
PGCPRDRLLLQL | 0.67 ± 0.025
PGCSFSYYFFAV | 0.5725 ± 0.0016
PGDVSFALARNG | 0.624 ± 0.074

Sequence | protein stability index
PGGRPAAGALRV | 0.685 ± 0.065
PGLCGGRRCVAL | 0.638 ± 0.073
PGLNHLTPMLPP | 0.635 ± 0.038
PGLPGHLPPLPL | 0.62033 ± 0.00011
PGLRSQQLIAPI | 0.652 ± 0.069
PGPCLLFPPFPP | 0.643 ± 0.012
PGPPADLAPPPP | 0.753 ± 0.018
PGPPYPPPPLHP | 0.716 ± 0.008
PGRLPPPFASFF | 0.687 ± 0.0091
PGSKLGPAASRG | 0.663 ± 0.071
PGSPPGLERLGR | 0.694 ± 0.059
PGSPPPPDTLSP | 0.701 ± 0.034
PGTLPDDLASTR | 0.673 ± 0.034
PGVGRLGRTPVS | 0.6959 ± 0.0054
PHHLLTAHPPPA | 0.668 ± 0.035
PHLAAPAPALQD | 0.613 ± 0.056
PHLPPLLTTTPS | 0.61 ± 0.023
PHLPPQPPSPPA | 0.716 ± 0.045
PHLRPPPPPPPQ | 0.6892 ± 0.0049
PHLSRSVSKVLR | 0.659 ± 0.066
PHPLPLPLPLSP | 0.7134 ± 0.0017
PHPPPPPPPHSP | 0.715 ± 0.08
PHPPPTAPGPSP | 0.67 ± 0.00026

Sequence | protein stability index
PHPRFYPSTPPP | 0.64827 ± 7.8e-06
PHPRRSTKTQRR | 0.7878 ± 0.0045
PHPTPGTPEPRD | 0.744 ± 0.17
PHSLPPPTPPHS | 0.629 ± 0.047
PHSPLSPAPQSP | 0.787 ± 0.02
PHTFNVRPFHPD | 0.674 ± 0.034
PHTLKPNPLSTA | 0.61 ± 0.063
PHTLPPLLRHAP | 0.693 ± 0.015
PHVCPVLSAAGR | 0.629 ± 0.044
PHYCSAYTAGHG | 0.72 ± 0.036
PIELTQRASVPP | 0.6592 ± 0.0052
PIFPALPRLSPS | 0.725 ± 0.022
PIFPFSFFLPLI | 0.605 ± 0.011
PIFPPLTSPSPP | 0.68 ± 0.032
PILSGILFMSPP | 0.755 ± 0.0092
PIPPRLPPPPPP | 0.589 ± 0.057
PISLSFPPPLHP | 0.65 ± 0.017
PKKNQSKQRKKT | 0.708 ± 0.05
PKTPRFWLLFPA | 0.699 ± 0.022
PKTSTPPPTSPA | 0.675 ± 0.0073
PLALARSPPPSP | 0.671 ± 0.02
PLALLHSHPPAN | 0.677 ± 0.0066
PLAPLLSPPAFP | 0.808 ± 0.12

Sequence | protein stability index
PLAPPLPPPGPL | 0.74 ± 0.022
PLAPPSPPPAPP | 0.6618 ± 0.00085
PLCVICRRWGAS | 0.646 ± 0.046
PLEPDFLIGGNA | 0.807 ± 0.16
PLEYPAQATMKP | 0.657 ± 0.021
PLFLPLVPPQIL | 0.682 ± 0.028
PLFPPPSLLTPH | 0.719 ± 0.14
PLGGPYNSHMFT | 0.956 ± 0.038
PLHLLPPPSSYP | 0.759 ± 0.033
PLHPDSCGSLSS | 0.647 ± 0.038
PLHPPATPAATT | 0.69 ± 0.025
PLHRPLPRPPSP | 0.745 ± 0.019
PLLHDSHAIIPH | 0.716 ± 0.079
PLLPLLPSPASP | 0.674 ± 0.0098
PLLPRLPPLSPP | 0.691 ± 0.07
PLLRRLFPLSSR | 0.608 ± 0.052
PLLYSDRPSIFL | 0.663 ± 0.026
PLNPSPSCPPTL | 0.676 ± 0.023
PLPAPSPLPSPL | 0.735 ± 0.038
PLPCLPPAGSTP | 0.818 ± 0.02
PLPFSTSPYAGR | 0.675 ± 0.011
PLPHPPPLALRT | 0.655 ± 0.063
PLPKARRHHSPA | 0.653 ± 0.033

Sequence | protein stability index
PLPLPSLSAIFL | 0.677 ± 0.016
PLPLPSPPPASP | 0.732 ± 0.025
PLPLSPLLLPPR | 0.6836 ± 0.0045
PLPPAPPSLSPP | 0.651 ± 0.01
PLPPHPPPPRPL | 0.698 ± 0.035
PLPPLAPPHRSP | 0.682 ± 0.091
PLPPLLAGAGLS | 0.704 ± 0.018
PLPPLTPASPHP | 0.72 ± 0.035
PLPPPLPASSPP | 0.681 ± 0.045
PLPPPLPLSSPP | 0.67 ± 0.012
PLPPPPAHPPPP | 0.616 ± 0.03
PLPPPPPLPLSP | 0.693 ± 0.07
PLPPPPPPIPLT | 0.702 ± 0.14
PLPPPPPPPSSP | 0.726 ± 0.011
PLPPPPVSLPAP | 0.617 ± 0.064
PLPPRPHPPPPY | 0.695 ± 0.037
PLPPRPPPLPLP | 0.716 ± 0.013
PLPPTPPPALSQ | 0.7 ± 0.018
PLPRLPLLPPLR | 0.67 ± 0.045
PLPSCTLCRPAL | 0.695 ± 0.03
PLPSLSPLPPPL | 0.701 ± 0.017
PLPSPSYLKSPC | 0.705 ± 0.013
PLPSVLFCLTRW | 0.665 ± 0.02

Sequence | protein stability index
PLPTLPFPCSPS | 0.706 ± 0.016
PLPVLFFFSACS | 0.661 ± 0.043
PLRISQLDVVRS | 0.655 ± 0.045
PLRPLPTPRPPP | 0.686 ± 0.0071
PLRYRPPPPPPP | 0.672 ± 0.031
PLSCFIPPVSSW | 0.666 ± 0.027
PLSPLAPPPAPS | 0.661 ± 0.075
PLSPNIHQRPPA | 0.75 ± 0.0096
PLSPPPPFPFPP | 0.71 ± 0.064
PLSPPVSLPLTP | 0.672 ± 0.098
PLSPSAVGCPGF | 0.645 ± 0.16
PLSPSFAPPSPA | 0.69672 ± 0.00044
PLSPTTRTRSQS | 0.642 ± 0.067
PLSTGLPFPRSP | 0.718 ± 0.028
PLTACPSAPTLP | 0.667 ± 0.0078
PLTGSLIPLFPL | 0.732 ± 0.029
PLTPPRLPRPFH | 0.7123 ± 0.0065
PLVAGRVIVTLR | 0.554 ± 0.011
PLVPISPLPYLP | 0.737 ± 0.012
PLVPPPADPLCV | 0.63 ± 0.0071
PLVRGSLGALGR | 0.657 ± 0.12
PLYSKHPTRFFP | 0.714 ± 0.011
